Reference: patent US20170247475A1 (Boehringer Ingelheim, published 2017)
Like-named read-outs stand apart in the source and are kept apart here.

T1: recombinant mouse VEGF164 (mouse, UniProt Q00731-2 27-190)
T1 construct: biotinylated in the mVEGFR2 AlphaScreen; also called rmVEGF164; mVEGF164
T1 sequence (looked up): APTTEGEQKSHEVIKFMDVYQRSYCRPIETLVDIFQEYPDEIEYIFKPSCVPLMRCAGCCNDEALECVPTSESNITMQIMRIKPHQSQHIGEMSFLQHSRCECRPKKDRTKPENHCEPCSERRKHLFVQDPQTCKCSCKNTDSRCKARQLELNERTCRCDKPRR

T2: human PIGF (human, UniProt P49763-2 21-149, limits assumed)
T2 construct: also called hPIGF; PLGF
T2 sequence (looked up): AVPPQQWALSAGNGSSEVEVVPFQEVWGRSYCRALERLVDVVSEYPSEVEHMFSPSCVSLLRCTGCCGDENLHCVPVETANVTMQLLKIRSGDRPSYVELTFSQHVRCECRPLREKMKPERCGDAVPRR

T3: human VEGF-B (human, UniProt P49765-2 22-188, limits assumed)
T3 construct: also called hVEGF-B
T3 sequence (looked up): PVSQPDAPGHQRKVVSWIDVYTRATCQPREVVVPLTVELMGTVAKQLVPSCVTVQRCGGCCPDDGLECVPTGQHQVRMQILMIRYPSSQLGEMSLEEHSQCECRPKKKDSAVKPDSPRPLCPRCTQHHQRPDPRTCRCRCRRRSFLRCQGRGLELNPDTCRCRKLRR

T4: human VEGF-D (human, UniProt O43915 93-201)
T4 construct: also called hVEGF-D
T4 sequence (looked up): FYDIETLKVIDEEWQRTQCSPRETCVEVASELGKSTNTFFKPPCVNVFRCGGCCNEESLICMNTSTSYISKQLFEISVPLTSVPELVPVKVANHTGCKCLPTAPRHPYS

T5: human VEGF-C (human, UniProt P49767 103-227)
T5 construct: also called hVEGF-C
T5 sequence (looked up): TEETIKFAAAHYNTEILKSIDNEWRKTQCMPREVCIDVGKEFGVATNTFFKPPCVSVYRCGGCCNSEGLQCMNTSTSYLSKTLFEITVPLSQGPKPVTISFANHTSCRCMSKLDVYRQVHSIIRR

T6: recombinant human VEGF121 (human, UniProt P15692-9 27-147)
T6 construct: also called rhVEGF121; hVEGF121
T6 sequence (looked up): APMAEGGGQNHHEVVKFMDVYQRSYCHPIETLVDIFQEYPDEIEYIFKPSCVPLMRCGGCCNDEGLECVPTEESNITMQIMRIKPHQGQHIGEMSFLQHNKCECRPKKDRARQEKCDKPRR

T7: hAng2
T7 construct: also called human Ang2
T7 chain: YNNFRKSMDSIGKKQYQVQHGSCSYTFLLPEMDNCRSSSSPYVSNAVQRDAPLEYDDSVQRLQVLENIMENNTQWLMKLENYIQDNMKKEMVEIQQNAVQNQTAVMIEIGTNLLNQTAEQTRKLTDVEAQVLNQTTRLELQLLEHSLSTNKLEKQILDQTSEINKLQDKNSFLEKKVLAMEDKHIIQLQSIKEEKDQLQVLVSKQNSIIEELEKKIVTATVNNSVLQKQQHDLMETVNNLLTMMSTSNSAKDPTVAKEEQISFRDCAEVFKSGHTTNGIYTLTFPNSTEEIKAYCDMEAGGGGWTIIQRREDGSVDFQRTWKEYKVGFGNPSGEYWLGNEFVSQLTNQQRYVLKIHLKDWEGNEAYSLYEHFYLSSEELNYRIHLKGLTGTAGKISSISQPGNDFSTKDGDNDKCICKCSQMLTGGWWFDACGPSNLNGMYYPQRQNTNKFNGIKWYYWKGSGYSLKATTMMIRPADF

T8: mAng2
T8 construct: also called mouse Ang2
T8 chain: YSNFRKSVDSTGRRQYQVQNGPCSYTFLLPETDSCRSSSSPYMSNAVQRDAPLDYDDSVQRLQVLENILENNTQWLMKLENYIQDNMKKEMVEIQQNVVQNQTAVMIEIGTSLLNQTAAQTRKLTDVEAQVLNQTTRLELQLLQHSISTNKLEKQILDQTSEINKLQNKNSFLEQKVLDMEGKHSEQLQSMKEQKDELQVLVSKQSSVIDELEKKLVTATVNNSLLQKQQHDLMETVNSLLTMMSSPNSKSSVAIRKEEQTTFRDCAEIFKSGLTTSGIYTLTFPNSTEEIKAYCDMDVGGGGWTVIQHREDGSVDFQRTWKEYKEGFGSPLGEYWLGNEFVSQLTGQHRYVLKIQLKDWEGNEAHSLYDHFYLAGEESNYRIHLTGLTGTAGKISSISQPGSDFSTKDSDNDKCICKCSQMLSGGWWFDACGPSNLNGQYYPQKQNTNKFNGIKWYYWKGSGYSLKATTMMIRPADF


Experiments:
[1] = biological target: T9, recombinant human VEGF165 (human, UniProt P15692-4 27-191); test: Biacore, periplasmic extract on hVEGF165 chip, two phase decay fit
T9 construct: also called hVEGF165; rhVEGF165
Description: (§1) Dissociation rates of inhibitory VHHs are analyzed on Biacore (Biacore T100 instrument, GE Healthcare). HBS-EP+ buffer is used as running buffer and experiments are performed at 25° C. […] After immobilization, surfaces are deactivated with 10 min injection of 1M ethanolamine pH8.5. A reference surface is activated and deactivated with respectively EDC/NHS and ethanolamine. Periplasmic extracts of VHHs are injected at a 10-fold dilution in running buffer for 2 min at 45 μl/min and allowed to dissociate for 10 or 15 min. Between different samples, the surfaces are regenerated with regeneration buffer. Data are double referenced by subtraction of the curves on the reference channel and of a blank running buffer injection. […] is evaluated by fitting a two phase decay model in the Biacore T100 Evaluation software v2.0.1.
Target sequence in this assay (P15692 other isoform, or with tags, fused parts or gaps limits assumed): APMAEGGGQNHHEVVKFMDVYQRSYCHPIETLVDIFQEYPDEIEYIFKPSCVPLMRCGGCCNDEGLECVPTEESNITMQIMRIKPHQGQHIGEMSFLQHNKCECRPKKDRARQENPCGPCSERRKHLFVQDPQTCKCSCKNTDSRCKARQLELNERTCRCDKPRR

[2] = biological target: T9, recombinant human VEGF165; test: ka1; SPR Biacore T100, hVEGF165 on chip, Two State Reaction model
Description: (§2) Samples are injected for 2 min and allowed to dissociate up to 20 min at a flow rate of 45 μI/min. In between sample injections, the chip surface is regenerated with 100 mM HCl. HBS-EP+(Hepes buffer pH7.4+EDTA) is used as running buffer. Binding curves are fitted using a Two State Reaction model by Biacore T100 Evaluation Software v2.0.1.
(§3) ^{(a)}Heterogeneous binding curve resulting in no 1:1 fit, curves are fitted using a Two State Reaction model by Biacore T100 Evaluation Software v2.0.1

[3] = biological target: T9, recombinant human VEGF165; test: Biacore, periplasmic extract on hVEGF165 chip
Description: as §1
Target sequence in this assay (P15692 other isoform, or with tags, fused parts or gaps limits assumed): as above

[4] = biological target: T9, recombinant human VEGF165; test: binding ELISA, coated rhVEGF165
[5] = biological target: T9, recombinant human VEGF165; test: hVEGF165/hVEGFR2-Fc competition ELISA
[6] = biological target: T1, recombinant mouse VEGF164; test: binding ELISA, coated rmVEGF164
Description: Cross-reactivity to mouse VEGF164 is determined using a binding ELISA. […] Wells are blocked with a casein solution (1% in PBS). […] A mouse VEGF164 reactive mAb is included as positive control.

[7] = biological target: T9, recombinant human VEGF165; test: hVEGF165/hVEGFR1-Fc competition AlphaScreen
Description: (§4) Finally, streptavidin donor beads (20 μg/ml) are added and after 1 hour of incubation in the dark, fluorescence is measured on the Envision microplate reader.

human PIGF = biological target: T2, human PIGF; test: solid phase binding ELISA
Description: (§5) Binding to VEGFB, VEGFC, VEGFD and PIGF is assessed via a solid phase binding ELISA. In brief, VEGFB, VEGFC, VEGFD and PIGF (R&D Systems, Minneapolis, Minn., USA) are coated overnight at 4° C. at 1 μg/mL in a 96-well MaxiSorp plate (Nunc, Wiesbaden, Germany). Wells are blocked with a casein solution (1% in PBS). […] As positive controls serial dilutions of the appropriate receptors are taken along and detected with horseradish peroxidase (HRP)-conjugated goat anti-human IgG, Fc specific antibody (Jackson Immuno Research Laboratories Inc., West Grove, Pa., USA) and a subsequent enzymatic reaction in the presence of the substrate TMB (3,3′,5,5′-tetramentylbenzidine) (Pierce, Rockford, Ill., USA).

human VEGF-B = biological target: T3, human VEGF-B; test: solid phase binding ELISA
Description: as §5

human VEGF-D = biological target: T4, human VEGF-D; test: solid phase binding ELISA
Description: as §5

human VEGF-C = biological target: T5, human VEGF-C; test: solid phase binding ELISA
Description: as §5

[8] = biological target: T9, recombinant human VEGF165; test: hVEGF165/hVEGFR1-Fc competition ELISA
[9] = biological target: T9, recombinant human VEGF165; test: kd1; SPR Biacore T100, hVEGF165 on chip, Two State Reaction model
Description: as §2, §3

[10] = biological target: T9, recombinant human VEGF165; test: hVEGF165/hVEGFR2-Fc competition AlphaScreen
Description: as §4

[11] = biological target: T9, recombinant human VEGF165; test: SPR Biacore T100, hVEGF165 on chip, Two State Reaction model
Description: as §2, §3

[12] = biological target: T6, recombinant human VEGF121; test: binding ELISA, coated rhVEGF121
Description: Binding to recombinant human VEGF121 is assessed via a solid phase binding ELISA. Briefly, recombinant human VEGF121 (R&D Systems, Minneapolis, Minn., USA) is coated overnight at 4° C. at 1 μg/mL in a 96-well MaxiSorp plate (Nunc, Wiesbaden, Germany). Wells are blocked with a casein solution (1% in PBS).

VEGF = test: cell-based or functional assay
hAng2 [13] = biological target: T7, hAng2; test: competition ELISA, blocking of hAng2 binding to hTie2
mAng2 [14] = biological target: T8, mAng2; test: competition ELISA, blocking of mAng2 binding to mTie2
mAng2 [15] = biological target: T8, mAng2; test: as above
hAng2 [16] = biological target: T7, hAng2; test: competition ELISA, blocking of hAng2 binding to hTie2
cAng2 = biological target: T10, cAng2 (cynomolgus monkey); test: competition ELISA, blocking of cAng2 binding to cTie2
T10 construct: also called cyno Ang2

% fast [1] [%]	kon [2] [M⁻¹ s⁻¹]	Binding level (RU) [3] [RU]	EC50 [4] [nM]	% inhibition [5] [%]	IC50 [5] [nM]	binding result [6]	% inhibition [7] [%]	IC50 [7] [nM]	binding result (human PIGF)	binding result (human VEGF-B)	binding result (human VEGF-D)	binding result (human VEGF-C)	% inhibition [8] [%]	IC50 [8] [nM]	koff [9] [s⁻¹]	% inhibition [10] [%]	IC50 [10] [nM]	Kd [11] [nM]	kd2 [11] [s⁻¹]	Binder	other results
13	420000	547	0.531	100	3	no binding (tested: 500 nM-32 pM)	46	0.4	no binding (tested: 500 nM-32 pM)	no binding (tested: 500 nM-32 pM)	no binding (tested: 500 nM-32 pM)	no binding (tested: 500 nM-32 pM)	55	0.9	0.057	100	0.25	0.7	0.0001	VEGFBII23A06 (VHH, also called 23A6; VEGFBII23A6) VHH: EVQLVESGGGLVQPGDSLKLSCAFSGRTFSSYSMGWFRQAQGKEREFVVAISSGGFIYDAVSLEGRFTISRDNTKNTVYLQTPSLKPEDTAVYYCAASRAYGSSRLRLADTYDYWGQGTQVTVSS	EC50 [12]: 0.928 nM; % inhibition, VEGF HUVEC proliferation assay (VEGF): 73%; IC50 (nM), VEGF HUVEC proliferation assay (VEGF): 4.29 nM
17	320000	456	0.453	100	2.5	no binding (tested: 500 nM-32 pM)	53	0.2	no binding (tested: 500 nM-32 pM)	no binding (tested: 500 nM-32 pM)	no binding (tested: 500 nM-32 pM)	no binding (tested: 500 nM-32 pM)	71	0.8	0.026	100	0.25	0.4	9.6e-05	VEGFBII24C04 (VHH, also called VEGFBII24C4) VHH: EVQLVESGGGLVQPGDSLKLSCVASGRTSSSYSMGWFRQAQGKEREFVVAISSGGYIYDSVSLQGRFTISRDNTKNTVYLQTPSLKPEDTAVYYCAASRAYGSSRLRLADTYDYWGQGTQVTVSS	EC50 [12]: 0.792 nM; % inhibition, VEGF HUVEC proliferation assay (VEGF): 79%; IC50 (nM), VEGF HUVEC proliferation assay (VEGF): 3.8 nM

Further lines, the binder ahead of its results:

Binder	% fast [1] [%]	kon [2] [M⁻¹ s⁻¹]	Binding level (RU) [3] [RU]	EC50 [4] [nM]	% inhibition [5] [%]	IC50 [5] [nM]	binding result [6]	% inhibition [7] [%]	IC50 [7] [nM]	binding result (human PIGF)	binding result (human VEGF-B)	binding result (human VEGF-D)	binding result (human VEGF-C)	% inhibition [8] [%]	IC50 [8] [nM]	koff [9] [s⁻¹]	% inhibition [10] [%]	IC50 [10] [nM]	Kd [11] [nM]	kd2 [11] [s⁻¹]	other results
ANGBII00005 (VHH, homodimeric anti-Ang2 VHH; also called 00027-40gs-00027) bivalent VHH: EVQLVESGGGLVQAGGSLRLSCAASGFTLDDYAIGWFRQAPGKEREGVSSIRDNDGSTYYADSVKGRFTISSDNDKNTVYLQMNSLKPEDTAVYYCAAVPAGRLRFGEQWYPLYEYDAWGQGTLVTVSSGGGGSGGGGSGGGGSGGGGSGGGGSGGGGSGGGGSGGGGSEVQLVESGGGLVQAGGSLRLSCAASGFTLDDYAIGWFRQAPGKEREGVSSIRDNDGSTYYADSVKGRFTISSDNDKNTVYLQMNSLKPEDTAVYYCAAVPAGRLRFGEQWYPLYEYDAWGQGTLVTVSS																					IC50 (read off the curve) (hAng2 [13]): ~0.01 nM; IC50 (read off the curve) (mAng2 [14]): ~0.03 nM
1D01 (VHH, also called 01D01) VHH: EVQLVESGGGLVQAGGSLRLSCAASGFTFDDYALGWFRQAAGKEREGVSCIRCSDGSTYYADSVKGRFTISSDNAKNTVYLQMNSLKPEDTAVYYCAASIVPRSKLEPYEYDAWGQGTQVTVSS																					IC50 (read off the curve) (mAng2 [15]): ~20 nM; IC50 (read off the curve) (hAng2 [16]): ~10 nM; IC50 (read off the curve) (cAng2): ~8 nM
